Our source for the methylation of the soluble peptide (2.5 µM peptide, 50 nM enzyme, radioactively labeled AdoMet, autoradiography); ratio of the initial methylation rates H3K4/H3K36 (fold (against the H3K36 26-44 peptide)) values is PMC12122940.

The target in this assay is H3 1–19 peptide.

Sequence of PRDM9 (195–415) (Q9NQV7 195-415): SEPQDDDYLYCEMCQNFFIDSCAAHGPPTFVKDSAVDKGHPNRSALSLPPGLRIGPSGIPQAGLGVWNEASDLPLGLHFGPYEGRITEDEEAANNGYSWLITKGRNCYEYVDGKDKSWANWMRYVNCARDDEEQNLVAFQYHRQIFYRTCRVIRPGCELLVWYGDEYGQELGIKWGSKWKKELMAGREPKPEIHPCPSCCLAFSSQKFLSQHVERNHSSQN

“PRDM9 (195–415) (from UniProt Q9NQV7 195-415) (enzyme)”: the methylation of the soluble peptide (2.5 µM peptide, 50 nM enzyme, radioactively labeled AdoMet, autoradiography); ratio of the initial methylation rates H3K4/H3K36 (fold (against the H3K36 26-44 peptide)) came to 5.2.
